Assay results taken from PMC9204835 (Journal of the American Chemical Society, 2022).

Target: the molecule itself
Assay: crystal structure

B1: SpeY-E269A/E270A double mutant (enzyme, Streptomyces spectabilis ATCC 27741)
chain: MSVRLADGKVRNPEGIEVNASLQCNMRCQSCAHLSPLYRRENADPAEIHDTLSVLARSYHASYAKIMGGEPLLHPDVVGLIEAVRATGISDTVLVATNGTLLHRATERFWQAVDSLEISVYPSRMIAPEEIERYRVLAREHGVSLLVNYYGHFRAVYSESGTDAPDLVRDVFDTCKLAHFWNSHTVYDGWLYRCPQSVFMPRQLRDGGWDPRVDGLRIEDDPAFLERLHRFLTADDPLRACRNCLGSVGKLHPHQELPRAGWQVTEQLAALVDYPFLKVCKDDITADDGCVERSLSAPVGGA
binding result: binds
